This is an account of results in article PMC10599630, “Human interleukin-12α and EBI3 are cytokines with anti-inflammatory functions” (Science Advances, 2023).

Experiment [1] has as its target T1, EBI3 (purified from Expi293) (human, UniProt Q14213 21-229).
T1 construct: human EBI3, UniProt Q14213; untagged; Untagged; pHEK293 ultra expression vector 1; also called recombinant human EBI3; source: Expi293, co-transfected with IL-27α^L162C,His
T1 sequence (looked up): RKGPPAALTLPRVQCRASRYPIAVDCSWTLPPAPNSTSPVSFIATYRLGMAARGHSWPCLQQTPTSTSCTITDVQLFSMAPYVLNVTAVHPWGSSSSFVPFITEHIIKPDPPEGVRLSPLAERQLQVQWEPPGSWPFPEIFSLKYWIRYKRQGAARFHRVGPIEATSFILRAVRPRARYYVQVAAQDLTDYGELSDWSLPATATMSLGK
Kind of experiment: pull-down; called co-IP with purified proteins: 1 μg of one protein and an equimolar amount of the other in 200 μl PBS, 1 hour at room temperature; Ni-nitrilotriacetic acid beads 2 hours at 4°C; wash PBS with 20 mM imidazole, elution 500 mM imidazole. Conditions: both partners purified.

The target in experiment [2] is T2, recombinant human IL-12β^C199S (previously purified) (human, UniProt P29460 23-328, C199S).
T2 construct: human interleukin-12 subunit beta (IL-12β/p40), UniProt P29460, with C199S; it may be the same construct as m7; also called p40 C199S; source: previously purified in our laboratory
T2 sequence (looked up): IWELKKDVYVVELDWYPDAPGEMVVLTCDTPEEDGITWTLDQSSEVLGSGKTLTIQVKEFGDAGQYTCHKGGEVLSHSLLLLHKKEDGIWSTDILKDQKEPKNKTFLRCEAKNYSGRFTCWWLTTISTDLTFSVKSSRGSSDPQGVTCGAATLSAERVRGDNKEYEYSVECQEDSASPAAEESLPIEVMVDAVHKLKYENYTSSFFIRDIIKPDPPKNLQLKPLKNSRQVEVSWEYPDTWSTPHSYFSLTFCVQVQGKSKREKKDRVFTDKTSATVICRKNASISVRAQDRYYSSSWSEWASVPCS
Described as above. Conditions: both partners purified.

B1: murine IL-27α (natural protein, UniProt Q8K3I6 29-234, looked up)
chain: FPTDPLSLQELRREFTVSLYLARKLLSEVQGYVHSFAESRLPGVNLDLLPLGYHLPNVSLTFQAWHHLSDSERLCFLATTLRPFPAMLGGLGTQGTWTSSEREQLWAMRLDLRDLHRHLRFQVLAAGFKCSKEEEDKEEEEEEEEEEKKLPLGALGGPNQVSSQVSWPQLLYTYQLLHSLELVLSRAVRDLLLLSLPRRPGSAWDS
notes: mouse interleukin-27 subunit alpha (IL-27α/p28), bought recombinant protein; also called mIL-27α; source: bought: R&D Systems, 7430-ML-010
As for B1, the binding result in experiment [1] is “binds”.

B2: IL-12α^C96S,His (natural protein, human, UniProt P29459 23-219, looked up)
chain: RNLPVATPDPGMFPCLHHSQNLLRAVSNMLQKARQTLEFYPCTSEEIDHEDITKDKTSTVEACLPLELTKNESSLNSRETSFITNGSCLASRKTSFMMALCLSSIYEDLKMYQVEFKTMNAKLLMDPKRQIFLDQNMLAVIDELMQALNFNSETVPQKSSLEEPDFYKTKIKLCILLHAFRIRAVTIDRVMSYLNAS
notes: human interleukin-12 subunit alpha (IL-12α/p35), UniProt P29459, with C96S (the cysteine of the interchain disulfide bond of IL-12); C-terminal TEV cleavage site followed by a GG-linker and His-tag; pcDNA3.4TOPO vector; also called IL-12αC96S with His-tag; source: ExpiCHO, co-transfected with IL-12β^C199S; not shown: His-tag, C-terminal, kept
For the molecule B2, the binding result in experiment [2] is recorded as “binds”.
